Among the data in article PMC4692527 are β-galactosidase activity and percent peptide pulled down by FvTox1 (relative binding strength) values, retold here.

Assay [1] addresses FvTox1 in the pLexA vector (LexA fusion) (Fusarium virguliforme). The experiment in a line: two-hybrid; LexA two-hybrid system, yeast EGY48 [pSH18-34]; FvTox1 in pLexA, peptides in pB42AD; reporters LacZ and LEU2; quantitative β-galactosidase activity (Miller units), three biological replications.
The target of assay [2] is GST-tagged FvTox1 (Fusarium virguliforme). Kind of assay: pull-down; purified His-tagged peptides/fusion proteins mixed with GST-tagged FvTox1, pulled down with glutathione resin; western blot with anti-His antibody; relative percent pulled down, two independent experiments.

“soybean GmTRX3, a thioredoxin protein (natural protein)” showed a β-galactosidase activity in assay [1] of 9.64 Miller units.

In the case of “soybean GmGD1, a glycine cleavage protein (natural protein)”, the β-galactosidase activity in assay [1] stood at 5.79 Miller units.

B1: synthetic FvTox1-interacting fusion peptide 8 (PEP1-PEP2-PEP4; His-tagged, expressed in E. coli) (designed binder)
chain: GGGGSGGGGSGGGGSSYLPETIYEYRLGGGGSELGGGGSGGGGSGGGGSVENKTRYHDREVGGGGSLEGGGGSGGGGSGGGGSSNGRVADGGGGS
Regarding B1, in assay [2], the percent peptide pulled down by FvTox1 (relative binding strength) was found to be 26 percent.

B2: synthetic FvTox1-interacting fusion peptide 8 in pB42AD (no flanking cysteines) (designed binder)
chain: B1 chain
In turn, B2 displayed a β-galactosidase activity in assay [1] of 3.35 Miller units.

B3: synthetic FvTox1-interacting fusion peptide 9 (PEP1-PEP2-PEP3-PEP4; His-tagged, expressed in E. coli) (designed binder)
chain: GGGGSGGGGSGGGGSSYLPETIYEYRLGGGGSELGGGGSGGGGSGGGGSVENKTRYHDREVGGGGSLEGGGGSGGGGSGGGGSHEGAWHNYARSVGGGGSGTGGGGSGGGGSGGGGSSNGRVADGGGGS
In assay [2], B3 came in with a percent peptide pulled down by FvTox1 (relative binding strength) of 47 percent.

B4: synthetic FvTox1-interacting fusion peptide 9 in pB42AD (no flanking cysteines) (designed binder)
chain: B3 chain
With B4, the β-galactosidase activity in assay [1] was determined as 5.64 Miller units.

B5: synthetic FvTox1-interacting fusion peptide 6 (PEP3-PEP4; His-tagged, expressed in E. coli) (designed binder)
chain: GGGSGGGGSGGGGSHEGAWHNYARSVGGGGSELGGGGSGGGGSGGGGSSNGRVADGGGGS
In assay [2], B5 had a percent peptide pulled down by FvTox1 (relative binding strength) of 8.8 percent.

B6: synthetic FvTox1-interacting fusion peptide 6 in pB42AD (no flanking cysteines) (designed binder)
chain: B5 chain
For the molecule B6, the β-galactosidase activity in assay [1] was found to be 5.32 Miller units.

The molecule GGGGSGGGGSGGGGSSNGRVADGGGGS [synthetic FvTox1-interacting peptide 4 (His-tagged, expressed in E. coli)] gave a percent peptide pulled down by FvTox1 (relative binding strength) in assay [2] of 2.3 percent.

For GGGGSGGGGSGGGGSHEGAWHNYARSVGGGGS [synthetic FvTox1-interacting peptide 3 (His-tagged, expressed in E. coli)], in assay [2], the percent peptide pulled down by FvTox1 (relative binding strength) was determined as 2.7 percent.

The molecule GGGGSGGGGSGGGGSHEGAWHNYARSVGGGGS [synthetic FvTox1-interacting peptide 3 in pB42AD (no flanking cysteines)] showed a β-galactosidase activity in assay [1] of 5.87 Miller units.

In assay [1], GGGGSGGGGSGGGGSSNGRVADGGGGS [synthetic FvTox1-interacting peptide 4 in pB42AD (no flanking cysteines)] gave a β-galactosidase activity of 6.45 Miller units.

As for GGGGSGGGGSGGGGSSYLPETIYEYRLGGGGS [synthetic FvTox1-interacting peptide 1 in pB42AD (no flanking cysteines)], in assay [1], the β-galactosidase activity was 6.59 Miller units.

For the molecule GGGGSGGGGSGGGGSSYLPETIYEYRLGGGGS [synthetic FvTox1-interacting peptide 1 (His-tagged, expressed in E. coli)], the percent peptide pulled down by FvTox1 (relative binding strength) in assay [2] amounted to 3.9 percent.

B7: synthetic FvTox1-interacting fusion peptide 5 (PEP1-PEP2; His-tagged, expressed in E. coli) (designed binder)
chain: GGGGSGGGGSGGGGSSYLPETIYEYRLGGGGSELGGGGSGGGGSGGGGSVENKTRYHDREVGGGGS
As to B7, in assay [2], the percent peptide pulled down by FvTox1 (relative binding strength) turned out to be 31.8 percent.

B8: synthetic FvTox1-interacting fusion peptide 5 in pB42AD (no flanking cysteines) (designed binder)
chain: B7 chain
B8 showed a β-galactosidase activity in assay [1] of 3.11 Miller units.

In turn, GGGGSGGGGSGGGGSVENKTRYHDREVGGGGS [synthetic FvTox1-interacting peptide 2 (His-tagged, expressed in E. coli)] registered a percent peptide pulled down by FvTox1 (relative binding strength) in assay [2] of 5.5 percent.

In the case of GGGGSGGGGSGGGGSVENKTRYHDREVGGGGS [synthetic FvTox1-interacting peptide 2 in pB42AD (no flanking cysteines)], in assay [1], the β-galactosidase activity came to 5.88 Miller units.

B9: synthetic FvTox1-interacting fusion peptide 7 (PEP1-PEP2-PEP3; His-tagged, expressed in E. coli) (designed binder)
chain: GSGGGGSGGGGSGGGGSSYLPETIYEYRLGGGGSELGGGGSGGGGSGGGGSVENKTRYHDREVGGGGSLEGGGGSGGGGSGGGGSHEGAWHNYARSVGGGGS
In turn, B9 displayed a percent peptide pulled down by FvTox1 (relative binding strength) in assay [2] of 38.5 percent.

B10: synthetic FvTox1-interacting fusion peptide 7 in pB42AD (no flanking cysteines) (designed binder)
chain: B9 chain
In assay [1], B10 yielded a β-galactosidase activity of 6.12 Miller units.
